Assay results: US20230321209A1

Biological target: human Adenovirus capsid
Assay: SPR, peptide on adenovirus capsid (FIGS. 13A-13B)

B1: R1A_KRAKV SARS-CoV2 peptide with 6K poly-lysine tail (peptide)
peptide: KKKKKKKRAKVTSAMQTMLFTMLRKL
- list of priority (rank by SPR binding, high binders listed first): 5 rank
